The results in this text go back to publication PMC9775641, “Conformational Dynamics of the Receptor-Binding Domain of the SARS-CoV-2 Spike Protein” (Biomedicines, 2022).

The target of this assay is T1, Wild-type (WT) receptor-binding domain (RBD) of SARS-CoV-2 spike protein, 330-528 aa fragment (SARS-CoV-2, wild type (Wuhan-1), UniProt P0DTC2).
T1 construct: also called WT RBD; wild-type RBD
Description: SPR. Conditions: both partners purified.

B1: SARS-CoV-2 neutralizing antibody P4A1 (full-length IgG1) (antibody, V domains shown)
VH: EVQLVESGGGLIQPGGSLRLSCAASGFIVSSNYMSWVRQAPGKGLEWVSIIYSGGSTFYADSVKGRFTISRDNSKNTLYLQMNSLRVEDTAVYYCARDLQELGSLDYWGQGTLVTVSS
VL: DIQMTQSPSSVSASVGDRVTITCRASQGISSWLAWYQQKPGKAPKLLIYAASSLQSGVPSRFSGSGSGTDFTLTISSLQPEDFATYYCQEANSFPYTFGQGTKLEIK
notes: also called P4AI; Ab
Broadly, the kon is a measure of how fast the partners come together. Higher therefore signals faster complex formation. For the molecule B1, the kon stood at 770000 M⁻¹ s⁻¹.
